Data on four molecules can be found in US20190135908A1 (Novartis, published 2019).

Test [1] deals with T1, GDF15 mutant M253R (wrist region), albumin fusion (human, UniProt Q99988 195-308).
T1 construct: not shown: albumin fusion partner
T1 chain: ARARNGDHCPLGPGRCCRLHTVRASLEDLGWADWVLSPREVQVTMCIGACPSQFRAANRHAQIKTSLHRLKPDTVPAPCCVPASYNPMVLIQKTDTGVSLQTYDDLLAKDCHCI
Nature of the test: direct ELISA on coated albumin-fusion GDF15 variant. As to the method:
(§1) Antibody epitope was determined by a direct ELISA method with GDF15 mutants. Albumin fusion GDF15 mutants were coated in wells of a 96-well EIA plate. After blocking, serially diluted anti-hGDF15 human antibodies were added to the GDF15-coated wells, followed by incubation at an ambient temperature for a few hours. Antibody binding was detected using an anti-human IgG antibody conjugated with horseradish peroxidase (HRP) and HRP substrate.

Test [2] deals with T2, GDF15 mutant Q247R (wrist region), albumin fusion (human, UniProt Q99988 195-308).
T2 construct: not shown: albumin fusion partner
T2 chain: T1 chain with Q53R, R59M
The description is as above. As to the method: as §1

In test [3] the target is T3, Rat GDF15 HIS: HIS-tagged rat GDF15 (rat, UniProt Q9Z0J6 189-303, limits assumed).
T3 construct: also called Rat His-GDF15; not shown: His tag
T3 sequence (looked up): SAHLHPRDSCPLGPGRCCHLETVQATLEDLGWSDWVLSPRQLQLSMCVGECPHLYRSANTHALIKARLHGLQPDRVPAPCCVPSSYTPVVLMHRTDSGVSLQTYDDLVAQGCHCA
The test is described as follows: Biacore SPR, IgG captured via anti-human Fc, GDF15 in flow. As to the method: (§2) Biacore assay is based on surface plasmon resonance (SPR) and were used to determine the binding affinity of antibodies to GDF15.
(§3) Anti-human Fc capture antibody was immobilized at 0.5 μg/ml on CMS chip in all four flow cells to achieve 8000 to 12,000 resonance units (RU) on the surface. Anti-hGDF15 antibodies were captured at flow rate […], at 0.25 to 0.5 μg/ml on the chip to get about 30 RU in flow cells 2, 3 and 4. GDF15 ligand was flowed at […] over captured antibodies and reference flow cell 1 for 600 and 1200 seconds contact time. Eight doses serially diluted 1 to 2, ranging from 20 to 0.156 nM, were tested. All cycles were repeated twice, regenerated between cycles with 3M MgCl₂ at flow […], 20 seconds contact time. Data were normalized by subtracting reference flow cell results. Data were fit with 1:1 Kinetics model with RI (bulk refractive index) set constant at 0.

Test [4] deals with T4, Mouse His-GDF15: HIS-tagged mouse GDF15 (mouse, UniProt Q9Z0J7 189-303).
T4 construct: not shown: His tag
T4 sequence (looked up): T3 sequence (looked up) with L4A, L63Q, R75K, Q110R
Described as above. As to the method:
as §2, §3

For test [5], the target named is T5, Cyno His-GDF15: HIS-tagged cyno GDF15 (cynomolgus, UniProt G7PWZ3 197-308, limits assumed).
T5 construct: not shown: His tag
T5 sequence (looked up): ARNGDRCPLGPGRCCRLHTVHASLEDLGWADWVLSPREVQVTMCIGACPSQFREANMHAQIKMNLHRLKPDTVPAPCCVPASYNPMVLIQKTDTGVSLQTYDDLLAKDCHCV
The test is described as above. As to the method: as §2, §3

Test [6] concerns the target T6, GDF15 mutant I285R (knuckle region), albumin fusion (human, UniProt Q99988 195-308).
T6 construct: not shown: albumin fusion partner
T6 chain: T1 chain with R59M, I91R
The test is described as follows: direct ELISA on coated albumin-fusion GDF15 mutant. As to the method: as §1

The target in test [7] is T7, GDF15 mutant L294R (knuckle region), albumin fusion (human, UniProt Q99988 195-308).
T7 construct: not shown: albumin fusion partner
T7 chain: T1 chain with R59M, L100R
The test is described as follows: direct ELISA on coated albumin-fusion GDF15 mutant. As to the method:
as §1

Test [8] deals with T8, GDF15 mutant S278R (back-of-hand), albumin fusion (human, UniProt Q99988 195-308).
T8 construct: not shown: albumin fusion partner
T8 chain: T1 chain with R59M, S84R
The test is described as follows: direct ELISA on coated albumin-fusion GDF15 variant. As to the method: as §1

Test [9] concerns the target T9, GDF15 mutant D289R (finger tip region), albumin fusion (human, UniProt Q99988 195-308).
T9 construct: not shown: albumin fusion partner
T9 chain: T1 chain with R59M, D95R
The test is described as above. As to the method:
as §1

The target of test [10] is T10, GDF15 mutant W228R (wrist region), albumin fusion (human, UniProt Q99988 195-308).
T10 construct: not shown: albumin fusion partner
T10 chain: T1 chain with W34R, R59M
Described as above. As to the method:
as §1

Test [11] concerns the target T11, Human GDF15 native: naturally produced human GDF15 purchased from Peprotech (human, UniProt Q99988 195-308).
T11 construct: Bought protein
T11 sequence: T1 chain with R59M
The test is described as follows: Biacore SPR (rounded from Table 2, human GDF15 native). As to the method:
as §3

For test [12], the target named is T12, GDF15 mutant S231R (knuckle region), albumin fusion (human, UniProt Q99988 195-308).
T12 construct: not shown: albumin fusion partner
T12 chain: T1 chain with S37R, R59M
The test is described as follows: direct ELISA: albumin fusion GDF15 mutant coated on the plate, serially diluted antibody, anti-human IgG-HRP detection. As to the method:
as §1

Test [13] concerns the target T13, Human His-GDF15: HIS-tagged human GDF15 (human, UniProt Q99988 195-308).
T13 construct: not shown: His tag
T13 sequence: T1 chain with R59M
Nature of the test: Biacore SPR, IgG captured via anti-human Fc, GDF15 in flow. As to the method: as §2, §3

In test [14] the target is T11, Human GDF15 native: naturally produced …. The test is described as above. As to the method: as §2, §3
The target of test [15] is T12, GDF15 mutant S231R (knuckle region), …. The test is described as follows: direct ELISA on coated albumin-fusion GDF15 mutant. As to the method: as §1
The target in test [16] is T7, GDF15 mutant L294R (knuckle region), …. Nature of the test: direct ELISA: albumin fusion GDF15 mutant coated on the plate, serially diluted antibody, anti-human IgG-HRP detection. As to the method: as §1

Numbering of substitutions follows the chain as printed.

B1: ABGDF15-D (antibody, human IgG1, lambda, V domains shown)
VH: EVQLVQSGAEVKKPGESLKISCKGSGYSFTSYWIGWVRQMPGKGLEWMGVIDPDGSYTIYSPSFQGQVTISADKSISTAYLQWSSLKASDTAMYYCARYGRYGTYFDYWGQGTLVTVSS
VL: QSVLTQPPSVSGAPGQRVTISCSGSSSNIGVLYVNWYQQLPGTAPKLLIYSNDNRPSGVPDRFSGSKSGTSASLAITGLQAEDEADYYCQSWDSSSNYVFGGGTKLTVLG
notes: captured through anti-human Fc in the Biacore assay
B1: the binding result in test [1] and in test [2] was “binds” throughout. Also, the Kd worked out at 0.0281 nM in test [3], 0.0457 nM in test [4] and 0.0141 nM in [5]. For the same molecule, the results for the off-rate constant (koff) in [3], in [4] and in test [5] were 0.000456 s⁻¹, 0.000509 s⁻¹ and 0.000236 s⁻¹, respectively. In addition, the kon in test [3] stood at 1.62e+07 M⁻¹ s⁻¹; in test [4], 1.11e+07 M⁻¹ s⁻¹; in test [5] it was 1.67e+07 M⁻¹ s⁻¹.

B2: ABGDF15-F (antibody, human IgG1, lambda, V domains shown)
VH: B1 VH with D54S
VL: B1 VL
notes: as for B1
For B2, the binding result in test [6] is reported as “no binding”; in [7] it was “no binding”; in test [8], “binds”; in [1], “binds”; in [2], “binds”; in [9], “binds”. Further, the binding result in [10] and in test [12] was “binds” throughout. For the same molecule, the dissociation constant (Kd) amounted to 0.037 nM in test [11]; 0.0115 nM in test [13]; 0.0485 nM in test [3]; 0.0964 nM in test [4]; 0.035 nM in [5]; 0.0368 nM in test [14]. The koff in test [13] stood at 0.00048 s⁻¹; in [3], 0.000538 s⁻¹; in test [4] it was 0.000584 s⁻¹; in [5], 0.00044 s⁻¹; in test [14] it was 0.000696 s⁻¹. The kon in test [13] was found to be 4.19e+07 M⁻¹ s⁻¹; in test [3] it was 1.11e+07 M⁻¹ s⁻¹; in [4] it was 6.05e+06 M⁻¹ s⁻¹; in test [5], 1.26e+07 M⁻¹ s⁻¹; in test [14], 1.89e+07 M⁻¹ s⁻¹.

B3: ABGDF15-E (antibody, human IgG1, lambda, V domains shown)
VH: B1 VH with D54G
VL: B1 VL
notes: as for B1
As to B3, the binding result in test [1] and in [2] was “binds” throughout. In addition, the figures for the dissociation constant (Kd) in test [3], in test [4] and in test [5] were 0.0396 nM, 0.079 nM and 0.0303 nM, respectively. Also, the koff in [3] is 0.000428 s⁻¹; in test [4], 0.000535 s⁻¹; in test [5] it was 0.00038 s⁻¹. Besides, the kon in [3] was found to be 1.08e+07 M⁻¹ s⁻¹; in test [4], 6.78e+06 M⁻¹ s⁻¹; in test [5] it was 1.26e+07 M⁻¹ s⁻¹.

B4: ABGDF15-B (antibody, human IgG1, lambda, V domains shown)
VH: QVQLVQSGAEVKKPGSSVKVSCKASGGTFRSYAVSWVRQAPGQGLEWMGGIIPIFGTANYAQKFQGRVTITADESTSTAYMELSSLRSEDTAVYYCARGPIIMGYQFGLFDHWGQGTLVTVSS
VL: SYELTQPLSVSVALGQTARITCSGDNIGSHIVSWYQQKPGQAPVLVIYDKSNRPSGIPERFSGSNSGNTATLTISRAQAGDEADYYCQTWDSIGSVVFGGGTKLTVLG
notes: as for B1
As for B4, the binding result in test [15] is reported as “no binding”; in test [6] it was “no binding”; in [8] it was “binds”; in test [1], “binds”; in test [2], “binds”; in test [9], “binds”. Moreover, the binding result in [10] and in test [16] was “binds” each time. In addition, the Kd in test [11] was 0.115 nM; in test [13], 0.0614 nM; in test [3] it was 0.097 nM; in test [4], 0.237 nM; in test [5] it was 0.0836 nM; in test [14], 0.115 nM. The koff in test [13] came to 0.00054 s⁻¹; in [3], 0.00052 s⁻¹; in test [4], 0.000626 s⁻¹; in [5], 0.000461 s⁻¹; in [14] it was 0.000389 s⁻¹. Also, the kon in [13] is 8.8e+06 M⁻¹ s⁻¹; in test [3], 5.36e+06 M⁻¹ s⁻¹; in [4], 2.64e+06 M⁻¹ s⁻¹; in [5], 5.52e+06 M⁻¹ s⁻¹; in test [14], 3.38e+06 M⁻¹ s⁻¹.
